Experimental data as given in the supplement of paper PMC9170038.

The sequences below were run on MS2 coat protein (assay: apparent KD of MS2 coat protein; higher = weaker reporter binding). Conditions: Eterna round: R107; input ligand: theophylline 20 uM.
Procedure: (§1)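 RNA-MaP round R107: designed RNA switches with theophylline, tryptophan, arginine or FMN aptamers are transcribed on-chip within common flanks. They are titrated with SNAP-549-labelled MS2 coat protein in RNA-MaP buffer (100 mM Tris pH 7.5, 80 mM KCl, 4 mM MgCl2), without ligand or with the indicated ligand. Median apparent KD per design.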

Row | Sequence | apparent KD of MS2 coat protein
1 | UAAUCGUAGGCGGCCGCCACUUUUUGGUAGUGUCCAUUGUACACUCACAUGAGGAUCACCCAUGUAAGGACCGGGCCCGCAUCAG [theeternabot_exclusion_MS2_Trp_B_32] | 24.7 nM
2 | UCCACAUGAGGAUCACCCAUGUAAUCAGAUACCAGUGACGAAAGUCACCCUUGGCAGCUGAUUACUUUAGUUCGAGGGUGUUUGA [EThA NP+V+V2 #4 Same Structure] | 148 nM
3 | CCUAUCCAGUCGGCCGCCACUGACCAUUUGGAACAGUGGGUGAAUACAUGAGGAUCACCCAUGUACAGGACCGGGACUGUAUAGG [Ex Tryptophan B 21] | 13.1 nM
4 | AGCACAUGAGGAUCACCCAUGUGAGGUGAUACCAGUGAGAAGAAGCACCCUUGGCAGCACUUGGGUACAUGAGGAUCACCCAUGU [Exclusion Theophylline A GF9] | 77.8 nM
5 | GGACUAACCAGAAGGAGCGACACGCAGAAACUGCAAUUUCCUCCACACGAGGAUCACCCGUGUCAGGUAGGUCGCUGGUUAGUCG | 37.3 nM
6 | GGGCGAGUGGCGCGGCGUGCUCCGCUCCGUCGAGGACCGGUACGGCCGCCACUCGACAUGAGGAUCACCCAUGUGCGAGCUCGCG [#1 Exclusion - Tryptophan A Attempt #12 (HarryS)] | 71.7 nM
7 | UAAUAAAUAAAUCCAAGGUGAAGGUCAGAUACCAGCCAGAUAACUGGCCCUUGGCAGCUGAAUAAACUUGAGGAACACCCAAGUA [TheoAS 28 #OpenEnded #MS2Late #AlternativeMS2] | 31.3 nM
8 | UAGCGAUUUGGUGAUACCAGACGUGUGCAGUCCUCAGACAUGAGGAUCACCCAUGUAUGCGUCCCUUGGCAGCGCUAUGAGGACA [Theo B Ex t6] | 105 nM

Same assay, conditions: Eterna round: R107; input ligand: theophylline 2 mM

Row | Sequence | apparent KD of MS2 coat protein
9 | GUAAGAGUAGGAAGGAGCGCUUUACAUGAGGAUCACCCAUGUGUGCCCUCAAUUUCGGUAAAGCAGGUAGGUCGCCUAAACUUGC [Tiqurabi] | 67.5 nM
10 | GUUAAUAGAAAACUAUUAACAGUGGGUGAACGAGGACCGGUACGGCCGCCACUCGGACAUGAGGAUCACCCAUGUCCAUGUGAAA [AstrosExyTryA#5] | 15.6 nM
11 | AGAGUUAGACAAAAGUCUAGCUCACCAGAAGGAGCGUCCGAAAGGACAGGUAGGUCGCUGGUACGUGAGGAUCACCCACGUUCCU [ArgAS 18 #OpenEnded #AlternativeMS2] | 28.4 nM
12 | ACCUGCGUUUGAUUCUAUCAGACGCAGGUUCGAGGACCGGUACGGCCGCCACUCGGACAUGAGGAUCACCCAUGUUUGACAUGGG [#04 Exclusion Tryptophan A] | 1010 nM
13 | GUACGAGUUGACUGUGAGACUGGCGUGGAAGGAGCGCACGGAGGUGCAGGUAGGUCGCCACAUGAGGAUCACCCAUGUCGGGCCG [Qutigeveat] | 40.1 nM
14 | GGACUAACUCGAAGGAGCGACACGCAGAAACUGCAAUUUCCUCCACACGAGGAUCACCCGUGUCAGGUAGGUCGCGAGUUAGUCG [ArgBX 29] | 28 nM
15 | UGCCGAGACGUGGAUUACCCAUGUACCGAAGGAGCGCCCGAAAGGGCAGGUAGGUCGCGGAGGACAUGAGGAUCACCCAUGUCGA | 166 nM
16 | GGACUAACCAGAAGGAGCGGCACGCAGAAACUGCUAAUUCCUCCGCACGAGGAUCACCCGUGUCAGGUAGGUCGCUGGUUAGUCG [ArgBX 28] | 14.8 nM
17 | UAAUCGUAGGCGGCCGCCACUUUUUGGUAGUGUCCAUUGUACACUCACAUGAGGAUCACCCAUGUAAGGACCGGGCCCGCAUCAG [theeternabot_exclusion_MS2_Trp_B_32] | 17.7 nM
18 | CCUAUCCAGUCGGCCGCCACUGACCAUUUGGAACAGUGGGUGAAUACAUGAGGAUCACCCAUGUACAGGACCGGGACUGUAUAGG [Ex Tryptophan B 21] | 10.4 nM
19 | GGACUAACCAGAAGGAGCGACACGCAGAAACUGCAAUUUCCUCCACACGAGGAUCACCCGUGUCAGGUAGGUCGCUGGUUAGUCG | 31 nM
20 | GGGCGAGUGGCGCGGCGUGCUCCGCUCCGUCGAGGACCGGUACGGCCGCCACUCGACAUGAGGAUCACCCAUGUGCGAGCUCGCG [#1 Exclusion - Tryptophan A Attempt #12 (HarryS)] | 101 nM
21 | UAAUAAAUAAAUCCAAGGUGAAGGUCAGAUACCAGCCAGAUAACUGGCCCUUGGCAGCUGAAUAAACUUGAGGAACACCCAAGUA [TheoAS 28 #OpenEnded #MS2Late #AlternativeMS2] | 82 nM
22 | UAGCGAUUUGGUGAUACCAGACGUGUGCAGUCCUCAGACAUGAGGAUCACCCAUGUAUGCGUCCCUUGGCAGCGCUAUGAGGACA [Theo B Ex t6] | 201 nM

Same assay, conditions: Eterna round: R107; input ligand: tryptophan 2.4 mM

Row | Sequence | apparent KD of MS2 coat protein
23 | GUAAGAGUAGGAAGGAGCGCUUUACAUGAGGAUCACCCAUGUGUGCCCUCAAUUUCGGUAAAGCAGGUAGGUCGCCUAAACUUGC [Tiqurabi] | 57 nM
24 | GUUAAUAGAAAACUAUUAACAGUGGGUGAACGAGGACCGGUACGGCCGCCACUCGGACAUGAGGAUCACCCAUGUCCAUGUGAAA [AstrosExyTryA#5] | 35.4 nM
25 | AGAGUUAGACAAAAGUCUAGCUCACCAGAAGGAGCGUCCGAAAGGACAGGUAGGUCGCUGGUACGUGAGGAUCACCCACGUUCCU [ArgAS 18 #OpenEnded #AlternativeMS2] | 23.1 nM
26 | GAGCUGAUGUAGAGAAUAAAUAUAAGAGAUACCAGUACAGAAAUGUACCCUUGGCAGCUCAACUUUACAUGAGGAUCACCCAUGU [Ex Theophylline A 18] | 13.9 nM
27 | GUACGAGUUGACUGUGAGACUGGCGUGGAAGGAGCGCACGGAGGUGCAGGUAGGUCGCCACAUGAGGAUCACCCAUGUCGGGCCG [Qutigeveat] | 26.7 nM
28 | GGACUAACUCGAAGGAGCGACACGCAGAAACUGCAAUUUCCUCCACACGAGGAUCACCCGUGUCAGGUAGGUCGCGAGUUAGUCG [ArgBX 29] | 19.8 nM
29 | UUAAAUGUGACGGAUACCAGCGUGUUGUAGAACAUGAGGAUCACCCAUGUAGUGAUCGAGCGCCCUUGGCAGCUGGUAUGUUUGA [7.Y] | 270 nM
30 | UGCCGAGACGUGGAUUACCCAUGUACCGAAGGAGCGCCCGAAAGGGCAGGUAGGUCGCGGAGGACAUGAGGAUCACCCAUGUCGA | 47 nM
31 | AAUUUGUCGGGUGAUACCAGCCUCGGCGCAUCUCGCGCUGAACAUGAGGAUCACCCAUGUGGCCCUUGGCAGCACAUGACAAAUC [Veerdira] | 757 nM
32 | GGACUAACCAGAAGGAGCGGCACGCAGAAACUGCUAAUUCCUCCGCACGAGGAUCACCCGUGUCAGGUAGGUCGCUGGUUAGUCG [ArgBX 28] | 13 nM
33 | ACAUCCAGAUUAAUCGUGGGCAUACUCGAUACCAGUAUUUUAAUCUACCCUUGGCAGCGACAUGAGGAUCACCCAUGUGCGAUGA [XTheo A #11] | 12.4 nM
34 | UCCACAUGAGGAUCACCCAUGUAAUCAGAUACCAGUGACGAAAGUCACCCUUGGCAGCUGAUUACUUUAGUUCGAGGGUGUUUGA [EThA NP+V+V2 #4 Same Structure] | 79.5 nM
35 | CCUAUCCAGUCGGCCGCCACUGACCAUUUGGAACAGUGGGUGAAUACAUGAGGAUCACCCAUGUACAGGACCGGGACUGUAUAGG [Ex Tryptophan B 21] | 27.9 nM
36 | AGCACAUGAGGAUCACCCAUGUGAGGUGAUACCAGUGAGAAGAAGCACCCUUGGCAGCACUUGGGUACAUGAGGAUCACCCAUGU [Exclusion Theophylline A GF9] | 54.7 nM
37 | GGACUAACCAGAAGGAGCGACACGCAGAAACUGCAAUUUCCUCCACACGAGGAUCACCCGUGUCAGGUAGGUCGCUGGUUAGUCG | 26.7 nM
38 | GGGCGAGUGGCGCGGCGUGCUCCGCUCCGUCGAGGACCGGUACGGCCGCCACUCGACAUGAGGAUCACCCAUGUGCGAGCUCGCG [#1 Exclusion - Tryptophan A Attempt #12 (HarryS)] | 39.8 nM
39 | UAAUAAAUAAAUCCAAGGUGAAGGUCAGAUACCAGCCAGAUAACUGGCCCUUGGCAGCUGAAUAAACUUGAGGAACACCCAAGUA [TheoAS 28 #OpenEnded #MS2Late #AlternativeMS2] | 22.7 nM
40 | UAGCGAUUUGGUGAUACCAGACGUGUGCAGUCCUCAGACAUGAGGAUCACCCAUGUAUGCGUCCCUUGGCAGCGCUAUGAGGACA [Theo B Ex t6] | 44.3 nM

These sequences were tested on K4 kissing-loop RNA reporter (assay: apparent KD of K4 kissing-loop reporter; higher = weaker reporter binding). Conditions: Eterna round: R107; input ligand: FMN 200 uM.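 Also: bound reporter read as fluorescence of individual clusters on recovered sequencing chips by microscopy, with normalized cluster intensities fitted with a binding model.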
Procedure: as §1, with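 “a labelled K4 kissing-loop RNA reporter” for “SNAP-549-labelled MS2 coat protein”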

Row | Sequence | apparent KD of K4 kissing-loop reporter
41 | GGGUGUAGUGCGGCCGCCACUGUGAUAGUAGAAGAGUAUAGUGAUGUUAUAUAGGAUUAAUAGAAUAGGACCGGGCAUUAGACUU [#24 K4 Tryptophan B Same State] | 348 nM
42 | CCUAUCUCGUACGAUACCAGUCAAUGAUCUUUGAUCAAUGCCAUCACCGAGUGAUGUUCGGACCCUUGGCAGCGUAUGAGAUGGG [whbob_Ex_Theo_B_sa105] | 272 nM
43 | GGUAGCAUGGCGGCCGCCACUAUUACUGGAUCGGAAACGAUCCAGUAUUUAUGAGUGAUGUUCAUUAGGACCGGGCCAUGCUACC | 342 nM
44 | AAUAAGGUCGCCGAUACCAGCGCGGGCAGAGCAAAGCUCUGCCCGGCAGUGAUGUUGCCGCGCCCUUGGCAGCGGUGGCACGACC [Omei KL Theo B SS C v7] | 166 nM
45 | GUCCCGAGUGAUGUUCGGGUCGUUCGGGAAGGAGCGCCCGCAAGGGCAGGUAGGUCGCCCGGAUCUCUCAGGUAACUGAGAGACC [#2 Same State - Arginine A Attempt #28 (HarryS)] | 553 nM
